We go through 38 molecules from PMC314469, “Protein Interaction Networks by Proteome Peptide Scanning” (PLoS Biology, 2004).

To fix the notation:
T1: amphyphisin SH3 (AMPH_HUMAN), P49418
T1 chain: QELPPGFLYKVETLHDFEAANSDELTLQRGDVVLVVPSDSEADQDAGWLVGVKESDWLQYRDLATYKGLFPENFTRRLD

In the first assay the target is endophilin SH3 (SH3G2_HUMAN), Q99962. Put plainly: SPOT array.
For VGIQLRRPLFQKVT [P21709 133-146], the normalised SPOT signal, Boehringer light units (BLU); mean over the file's lines of this peptide was 77.8.
On the same count and under the same terms, the same measure for VGASLTRPNRRLRW [Q9Y3M8 456-469]: 177; for VEGILKRPPDEQRL [Q15370 31-44]: 20.6; for VFRVLRRPQEFVNR [Q9ULB8 127-140]: 281.
Consider VSARPEKPPGQVTR [P35475 539-553], for which the normalised SPOT signal, Boehringer light units (BLU); mean over the file's lines of this peptide is 98.9.
The molecule VEHVPGRPVRNPQS [P25391 53-66] registered a normalised SPOT signal, Boehringer light units (BLU); mean over the file's lines of this peptide of 49.9.
On to VFTPLRRPGMLVPK [Q9UIW6 20-33], for which the normalised SPOT signal, Boehringer light units (BLU); mean over the file's lines of this peptide amounted to 187.
On the same count and under the same terms, as for VFLSFRRPFWREEH [Q96RQ9 355-368], the figure is 13.7; as for VEELLRRPMDSLDS [P42229 764-777], 46.2; as for VGDVLRRPSKDEPL [Q14571 2500-2513], 115.
On the same count and under the same terms, the same measure for TVNLFKRPLPKSKP [Q9UNP7 5-18]: 60.8; for VSRDITRPPKTVAT [Q14425 672-685]: 189.
On the same count and under the same terms, as for VSPGPIRPIKQISD [Q14184 22-35], the figure is 344; as for VAEPPPRPPPPPPP [Q9NZM4 1290-1304], 609; as for TWQGLRRPPSVLGH [Q9C094 1911-1924], 346.
SGPPPLRPPLPAAA [P22004 21-35] gave a normalised SPOT signal, Boehringer light units (BLU); mean over the file's lines of this peptide of 4710.
The same measure, in the same setting: as for TYSLLRRPFRQVLA [Q96P69 293-306], the figure is 715; as for VESILKRPSSAITR [Q9NPG6 312-325], 31.6.
Still for that read-out and setting: as for SGRHFRRPDPSREP [Q9H9Q6 68-81], the figure is 15; as for VAPRPARPPGDLGP [O00144 174-188], 630; as for VATDLGRPARSATG [Q96JQ0 2039-2052], 89.9.
On the same count and under the same terms, as for SGKAFRRPSDLFRH [Q9NPV1 31-44], the figure is 26.9; as for TTVLIRRPDLRYQL [Q02410 746-759], 16.2.
With TTVRPAKPPVVDRS [O95630 222-236], the normalised SPOT signal, Boehringer light units (BLU); mean over the file's lines of this peptide came out at 806.
For VEGSPFRPPSHSFS [O95359 85-99], the normalised SPOT signal, Boehringer light units (BLU); mean over the file's lines of this peptide was determined as 79.6.
On the same count and under the same terms, the same measure for VFQAPRRPGIGTVG [Q9UL18 20-33]: 728.
On the same count and under the same terms, the same measure for VARSPKRPAWGSRR [Q9P1W0 38-51]: 1040.
Molecule VDNTIKRPNPAPGT [Q9UQ13 68-81] displayed a normalised SPOT signal, Boehringer light units (BLU); mean over the file's lines of this peptide of 51.8.
Still for that read-out and setting: the same measure for VAWHPKRPLLAFAS [Q96J01 313-326]: 267.
Same read-out and setting: the same measure for VGASLTRPSRKLRW [Q92502 483-496]: 269; for VSRLPKRPEPSPPL [Q15515 17-30]: 3650; for VETSLRRPQDKDAK [P36776 780-793]: 43.5.
On the same count and under the same terms, the same measure for VSPGPIRPIRQISD [Q14183 21-34]: 254; for VEPPPRRPMSQKSE [Q96MR0 151-164]: 258; for VSLALVRPSKMGLS [O15403 466-479]: 9.5.
For TYTAPPRPPKKREY [Q9P1Z0 111-124], the normalised SPOT signal, Boehringer light units (BLU); mean over the file's lines of this peptide turned out to be 166.
Still for that read-out and setting: the same measure for TYQHLRRPRGLSSL [O60721 37-50]: 196; for VASGPSRPGREEHI [Q04671 237-250]: 430.

The next assay deals with T1, amphyphisin SH3 (AMPH_HUMAN), P49418. Put plainly: SPOT array.
Turning to VGIQLRRPLFQKVT [P21709 133-146], the normalised SPOT signal, Boehringer light units (BLU); mean over the file's lines of this peptide turned out to be 36.6.
Same read-out and setting: the same measure for VGASLTRPNRRLRW [Q9Y3M8 456-469]: 1960; for VEGILKRPPDEQRL [Q15370 31-44]: 32.4.
Same read-out and setting: the same measure for VFRVLRRPQEFVNR [Q9ULB8 127-140]: 72.4.
The same measure, in the same setting: as for VSARPEKPPGQVTR [P35475 539-553], the figure is 42.3.
The molecule VEHVPGRPVRNPQS [P25391 53-66] had a normalised SPOT signal, Boehringer light units (BLU); mean over the file's lines of this peptide of 638.
VFTPLRRPGMLVPK [Q9UIW6 20-33] had a normalised SPOT signal, Boehringer light units (BLU); mean over the file's lines of this peptide of 98.
In turn, VFLSFRRPFWREEH [Q96RQ9 355-368] had a normalised SPOT signal, Boehringer light units (BLU); mean over the file's lines of this peptide of 12.9.
The same measure, in the same setting: as for VEELLRRPMDSLDS [P42229 764-777], the figure is 30.5.
On the same count and under the same terms, as for VGDVLRRPSKDEPL [Q14571 2500-2513], the figure is 26; as for TVNLFKRPLPKSKP [Q9UNP7 5-18], 25.3; as for VSRDITRPPKTVAT [Q14425 672-685], 119.
On the same count and under the same terms, the same measure for VSPGPIRPIKQISD [Q14184 22-35]: 126; for VAEPPPRPPPPPPP [Q9NZM4 1290-1304]: 75.4.
TWQGLRRPPSVLGH [Q9C094 1911-1924] registered a normalised SPOT signal, Boehringer light units (BLU); mean over the file's lines of this peptide of 64.
On the same count and under the same terms, the same measure for SGPPPLRPPLPAAA [P22004 21-35]: 58.3; for TYSLLRRPFRQVLA [Q96P69 293-306]: 691.
Still for that read-out and setting: the same measure for VESILKRPSSAITR [Q9NPG6 312-325]: 27.1; for SGRHFRRPDPSREP [Q9H9Q6 68-81]: 23.3; for VAPRPARPPGDLGP [O00144 174-188]: 151.
For the molecule VATDLGRPARSATG [Q96JQ0 2039-2052], the normalised SPOT signal, Boehringer light units (BLU); mean over the file's lines of this peptide is 18.2.
The same measure, in the same setting: the same measure for SGKAFRRPSDLFRH [Q9NPV1 31-44]: 28.3; for TTVLIRRPDLRYQL [Q02410 746-759]: 29.4; for TTVRPAKPPVVDRS [O95630 222-236]: 34.9.
Same read-out and setting: the same measure for VEGSPFRPPSHSFS [O95359 85-99]: 51.3; for VFQAPRRPGIGTVG [Q9UL18 20-33]: 155; for VARSPKRPAWGSRR [Q9P1W0 38-51]: 47.2.
Consider VDNTIKRPNPAPGT [Q9UQ13 68-81], for which the normalised SPOT signal, Boehringer light units (BLU); mean over the file's lines of this peptide came out at 7.4.
On the same count and under the same terms, as for VAWHPKRPLLAFAS [Q96J01 313-326], the figure is 32.8.
VGASLTRPSRKLRW [Q92502 483-496] registered a normalised SPOT signal, Boehringer light units (BLU); mean over the file's lines of this peptide of 7280.
For the molecule VSRLPKRPEPSPPL [Q15515 17-30], the normalised SPOT signal, Boehringer light units (BLU); mean over the file's lines of this peptide was determined as 30.
Same read-out and setting: as for VETSLRRPQDKDAK [P36776 780-793], the figure is 26.8; as for VSPGPIRPIRQISD [Q14183 21-34], 1280; as for VEPPPRRPMSQKSE [Q96MR0 151-164], 247.
Same read-out and setting: the same measure for VSLALVRPSKMGLS [O15403 466-479]: 53.1; for TYTAPPRPPKKREY [Q9P1Z0 111-124]: 189; for TYQHLRRPRGLSSL [O60721 37-50]: 31.3.
Take VASGPSRPGREEHI [Q04671 237-250]: the normalised SPOT signal, Boehringer light units (BLU); mean over the file's lines of this peptide is 2520.
